Results on two molecules are retold here after patent publication US20040143098, “Method for improving plant tolerance to environmental stress” (published 2004).

Data set [1] deals with DBF1 (Zea mays). Briefly: EMSA; same buffer; ABRE reported as not bound. The note with it: tags: pET28 tag (about 31 aa), expressed in E. coli; label: 32P. From the text: (§1) The following DNA oligonucleotides were used in electrophoretic mobility shift assays: DRE2 (SEQ ID NO 4 and 5), DRE2 m (SEQ ID NOs 6 and 7), DRE1 (SEQ ID NO 8 and 9), DRE1/ABRE1 (SEQ ID NOs 10 and 11), ABRE A (SEQ ID Nos12 and 13). The full-length oligonucleotides were purified by denaturing PAGE. Complementary oligonucleotides were annealed and purified in nondenaturing polyacrylamide gel. The double-stranded oligonucleotides were labelled with α³² P-dATP (3000 Ci/mmol, Amersham) by filling in with the Klenow fragment of the DNA polymerase I (Sambrook et al., 1989) and purified on a NAP5 column (Pharmacia), according to the manufacturers instructions. Unlabeled competitor DNA was filled in with nonradioactive nucleotides.
(§2) The radioactive probe was incubated with 400 ng of protein in 20 μl of 1× binding buffer (25 mM HEPES, pH 7.8, 75 mM KCl, 5 mM MgCl_{2,} 0.5 mM EDTA, 0.2 mM DTT and 10% glycerol) and 700 ng poly(dl-dC) for 20 min on ice before loading on a 1× Tris-borate-EDTA, 5% (30:0.8 acrylamide-bis) polyacrylamide gel. Electrophoresis was at 10 V/cm at 4° C. In competition assays the protein was incubated with non-radioactive oligonucleotides in 1× binding buffer, on ice for 10 min prior to adding the radioactive probe and continuing with incubation for 20 min more.

In data set [2] the target is DBF1 (Zea mays). Briefly: EMSA; same buffer. The note with it: tags: pET28 tag (about 31 aa), expressed in E. coli; label: 32P.
Description: as §1, §2

Sequence of DBF1 (Zea mays) (chain, as listed by the source): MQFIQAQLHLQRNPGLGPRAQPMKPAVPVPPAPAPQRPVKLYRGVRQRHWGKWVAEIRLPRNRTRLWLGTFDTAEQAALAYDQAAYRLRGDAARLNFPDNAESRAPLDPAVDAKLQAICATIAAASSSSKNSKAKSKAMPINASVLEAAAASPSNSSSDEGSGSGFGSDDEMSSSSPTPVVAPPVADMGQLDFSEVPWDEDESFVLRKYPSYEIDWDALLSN

B1: ABRE A (dsDNA)
DNA 1: TGGAAGCTTCGCGCCACGTGGGCATGAGATCT
DNA 2: TGGAGATCTCATGCCCACGTGGCGCGAAGCTT
Regarding B1, in data set [1], the binding result is on record as “no binding”.

B2: DRE1 (dsDNA)
DNA 1: GGGGTCGAGAAGAACCGAGACGAAGCGGTCGAG
DNA 2: GGGGCTCGACCGCTTCGTCTCGGTTCTTCTCGA
Turning to B2, in data set [2], the binding result is reported as “no binding”.
